Data taken from publication PMC2115704.

What was measured:
Assay in all cases: SDS-PAGE in the absence of reductant
[1] = target: endogenous COS-1 cell TSP (African green monkey (endogenous in COS-1))
[2] = target: truncated TSP protein Pro449 (human)
[3] = target: truncated TSP protein Val333 (human)

Sequence of truncated TSP protein Pro449 (domain or fragment) (P07996 374-552): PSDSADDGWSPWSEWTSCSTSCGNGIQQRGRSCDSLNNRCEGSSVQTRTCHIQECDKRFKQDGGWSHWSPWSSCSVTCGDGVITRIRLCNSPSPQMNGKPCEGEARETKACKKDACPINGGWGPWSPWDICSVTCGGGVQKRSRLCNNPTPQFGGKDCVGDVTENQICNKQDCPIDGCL
Sequence of truncated TSP protein Val333 (domain or fragment) (P07996 374-552): as above

Question: How did the stoichiometry N [1] turn out when “endogenous COS-1 cell TSP (natural protein)” was run?
Answer: 3

Question: Which stoichiometry N [2] does the source give for “truncated TSP protein Pro449 (domain or fragment)” here?
Answer: 3

Question: Which stoichiometry N [3] does the source give for “truncated TSP protein Val333 (domain or fragment)” here?
Answer: 3
